{"source": "paper PMC10891604", "biological_target": "T1, Lmo1172 (UniProt Q92CN5)", "T1 sequence": "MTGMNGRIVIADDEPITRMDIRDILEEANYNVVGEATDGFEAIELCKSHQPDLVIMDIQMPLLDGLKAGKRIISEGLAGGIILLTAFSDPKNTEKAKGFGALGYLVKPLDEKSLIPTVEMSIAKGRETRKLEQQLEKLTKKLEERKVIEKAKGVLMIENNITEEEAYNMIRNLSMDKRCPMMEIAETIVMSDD", "test": "EMSA", "conditions": "EMSA: 200 ng DNA in Beyotime binding buffer, 6% non-denaturing PAGE, ethidium bromide staining; salt, pH and temperature not stated"}
{"sequence": "CTAATTCACCTCCACTAATATTTTACAACGAATTTACCCATAATAACCAAAAATGTAATGAAATGTCCGATTCTTGTCATGAACGACCAAAAAAGAGCAGAATTGCCGATTTTTTGGATACATTTCAGAATATTCGAACGTGTAAAAAGGACTGTATAATAGGCTTAAAAACCCATATTAATATTTTATTTAAGTGAGTTTATTCATAAAAAAAACCAACTGCAAAAGAATGTTCACAGTTGGCTTTTCCATTTTA (double strand) [P2 promoter DNA]", "values": [{"measurement": "binding", "result": "no binding"}]}
